Reference: FireProtDB (doi:10.1016/j.bpc.2006.10.013)

Details: Clostridium pasteurianum; pH 9.08; Thermal; NMR; Sodium borate 100 mM; reversible: Yes; whole UniProt chain shown

B1: Rubredoxin wild type, P00268 (protein)
chain: MKKYTCTVCGYIYNPEDGDPDNGVNPGTDFKDIPDDWVCPLCGVGKDQFEEVEE
  Tm: 107 °C
  heat capacity change of unfolding: 0.5 kcal/mol/K
  unfolding enthalpy (van 't Hoff): 62 kcal/mol
